# Reference: PMC10622425
# Where “and” joins values, the source holds several entries; their conditions need not be identical. Identical values can stand only once.
# Target: M2 protein of human Influenza A virus A/WSN/33 (H1N1), wild type (Influenza A virus A/WSN/33 (H1N1))
substance,measurement,value
"M2 protein of human Influenza A virus A/WSN/33 (H1N1), wild type (natural protein)",stoichiometry N,4 and 2 and 3
